Test results published in US20220332804A1 (CSL INNOVATION, published 2022).

Legend:
Test in all cases: SPR, mAb captured, C2 mutant analyte;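 also: Anti-C2 mAbs captured on goat anti-human IgG Biacore CM5 chips, alanine or serine C2 surface mutants flowed over at 37 °C, double-referenced sensorgrams fitted to a 1:1 binding model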
[1] = target: T1, human C2 G427A (human, UniProt P06681 21-752)
T1 sequence: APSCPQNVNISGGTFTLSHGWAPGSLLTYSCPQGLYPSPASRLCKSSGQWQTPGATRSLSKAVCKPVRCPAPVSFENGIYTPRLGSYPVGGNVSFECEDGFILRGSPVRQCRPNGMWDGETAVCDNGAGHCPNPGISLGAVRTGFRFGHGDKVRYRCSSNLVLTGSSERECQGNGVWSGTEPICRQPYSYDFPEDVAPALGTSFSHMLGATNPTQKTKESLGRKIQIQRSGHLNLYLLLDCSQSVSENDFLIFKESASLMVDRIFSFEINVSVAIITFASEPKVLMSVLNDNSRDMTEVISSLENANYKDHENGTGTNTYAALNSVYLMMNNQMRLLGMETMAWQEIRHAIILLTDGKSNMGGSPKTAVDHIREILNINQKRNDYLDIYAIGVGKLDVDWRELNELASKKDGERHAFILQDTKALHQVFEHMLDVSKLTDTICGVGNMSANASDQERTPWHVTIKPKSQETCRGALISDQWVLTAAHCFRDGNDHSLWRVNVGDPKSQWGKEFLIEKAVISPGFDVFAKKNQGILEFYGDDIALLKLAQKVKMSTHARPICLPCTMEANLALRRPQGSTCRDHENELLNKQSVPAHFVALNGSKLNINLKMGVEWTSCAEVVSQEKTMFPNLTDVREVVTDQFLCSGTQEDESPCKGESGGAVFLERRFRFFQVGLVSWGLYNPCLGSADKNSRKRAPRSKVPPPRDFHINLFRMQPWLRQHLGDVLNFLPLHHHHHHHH

[2] = target: T2, human C2 R434A (human, UniProt P06681 21-752)
T2 sequence: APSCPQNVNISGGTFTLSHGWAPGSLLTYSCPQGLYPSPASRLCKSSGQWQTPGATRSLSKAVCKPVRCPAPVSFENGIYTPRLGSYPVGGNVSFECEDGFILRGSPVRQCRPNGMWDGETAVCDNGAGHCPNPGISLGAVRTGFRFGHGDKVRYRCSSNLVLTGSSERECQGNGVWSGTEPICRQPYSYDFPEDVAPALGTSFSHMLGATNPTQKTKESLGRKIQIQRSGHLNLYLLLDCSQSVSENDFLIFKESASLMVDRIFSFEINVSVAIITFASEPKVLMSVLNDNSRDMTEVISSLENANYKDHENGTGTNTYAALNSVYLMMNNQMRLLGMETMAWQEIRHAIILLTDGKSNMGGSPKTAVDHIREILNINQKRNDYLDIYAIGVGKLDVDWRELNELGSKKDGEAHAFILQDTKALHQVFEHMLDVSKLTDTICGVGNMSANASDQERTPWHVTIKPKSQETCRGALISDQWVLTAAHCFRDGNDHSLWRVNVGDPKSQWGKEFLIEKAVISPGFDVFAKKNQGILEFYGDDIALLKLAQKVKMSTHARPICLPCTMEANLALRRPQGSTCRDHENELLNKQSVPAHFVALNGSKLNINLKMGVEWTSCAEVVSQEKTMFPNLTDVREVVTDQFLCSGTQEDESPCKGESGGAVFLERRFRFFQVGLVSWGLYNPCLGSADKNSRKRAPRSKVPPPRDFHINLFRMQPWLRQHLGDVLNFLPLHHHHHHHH

[3] = target: T3, human C2 I438A (human, UniProt P06681 21-752)
T3 sequence: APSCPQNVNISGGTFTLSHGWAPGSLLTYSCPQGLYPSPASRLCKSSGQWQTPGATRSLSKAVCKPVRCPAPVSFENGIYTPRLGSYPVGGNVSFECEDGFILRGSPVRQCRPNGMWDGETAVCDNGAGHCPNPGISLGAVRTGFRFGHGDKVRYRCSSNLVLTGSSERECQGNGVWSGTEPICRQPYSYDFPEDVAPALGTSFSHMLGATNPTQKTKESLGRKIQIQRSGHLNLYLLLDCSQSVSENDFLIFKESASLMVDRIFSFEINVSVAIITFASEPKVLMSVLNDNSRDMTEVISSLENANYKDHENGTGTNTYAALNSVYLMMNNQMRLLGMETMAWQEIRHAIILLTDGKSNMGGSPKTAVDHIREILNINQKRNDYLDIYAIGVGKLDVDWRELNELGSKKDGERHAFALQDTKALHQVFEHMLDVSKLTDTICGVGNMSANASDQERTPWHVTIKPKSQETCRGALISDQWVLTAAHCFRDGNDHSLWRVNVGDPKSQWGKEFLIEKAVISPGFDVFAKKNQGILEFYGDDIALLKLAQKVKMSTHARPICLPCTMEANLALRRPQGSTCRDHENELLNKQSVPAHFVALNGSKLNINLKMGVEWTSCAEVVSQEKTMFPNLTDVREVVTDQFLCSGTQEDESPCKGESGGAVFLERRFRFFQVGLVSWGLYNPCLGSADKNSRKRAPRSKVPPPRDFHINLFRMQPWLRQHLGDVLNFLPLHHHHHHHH

[4] = target: T4, human C2 N467A (human, UniProt P06681 21-752)
T4 sequence: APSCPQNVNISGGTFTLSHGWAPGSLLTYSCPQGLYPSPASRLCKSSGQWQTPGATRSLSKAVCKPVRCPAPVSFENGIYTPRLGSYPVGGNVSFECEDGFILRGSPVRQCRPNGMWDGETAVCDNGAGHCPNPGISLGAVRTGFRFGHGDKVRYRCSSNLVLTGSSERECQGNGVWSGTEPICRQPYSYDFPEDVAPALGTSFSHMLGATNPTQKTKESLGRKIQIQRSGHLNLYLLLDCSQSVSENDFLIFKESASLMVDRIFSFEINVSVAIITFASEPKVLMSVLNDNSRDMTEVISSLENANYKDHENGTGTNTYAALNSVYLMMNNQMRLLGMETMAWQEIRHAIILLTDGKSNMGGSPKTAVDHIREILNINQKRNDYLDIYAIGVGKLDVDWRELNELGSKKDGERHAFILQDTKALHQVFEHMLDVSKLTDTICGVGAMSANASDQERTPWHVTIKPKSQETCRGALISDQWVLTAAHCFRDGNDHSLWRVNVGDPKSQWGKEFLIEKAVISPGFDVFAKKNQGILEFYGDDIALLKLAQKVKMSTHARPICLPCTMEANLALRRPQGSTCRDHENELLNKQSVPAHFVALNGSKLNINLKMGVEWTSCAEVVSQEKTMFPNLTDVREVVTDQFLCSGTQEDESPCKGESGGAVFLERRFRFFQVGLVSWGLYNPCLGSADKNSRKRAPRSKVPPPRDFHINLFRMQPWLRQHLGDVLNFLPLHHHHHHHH

B1: RF16-214 (antibody, V domains shown)
VH: EVQLLESGGGLVQPGGSLRLSCAASGFTFSWYQMMWVRQAPGKGLEWVSRIYPSGGGTAYADSVKGRFTISRDNSKNTLYLQMNSLRAEDTAVYYCARDAGYGDNWGQGTLVTVSS
VL: QSALTQPPSVSVSPGQTASITCSGDKLGEKYASWYQQKAGQSPVMVIYQDRKRPSGIPERFSGSNSGNTATLTISGTQAMDEADYYCQAWDTRAVVFGGGTKLTVLG
For B1, the Kd [1] was 8.8 nM, the Kd [2] was 230 nM and the Kd [3] was 30.6 nM. The Kd [4] was 77.2 nM.
